Percent reduction of the two-hybrid interaction data for 1 molecule are collected here from article PMC5706562.

This experiment has as its target Psy2 with aa 25–129 deleted, fused to lexA-DBD (S. cerevisiae). The experiment is described as follows: two-hybrid.

B1: DDC2 fused to B42-AD (natural protein)
chain: MRRETVGEFSSDDDDDILLELGTRPPRFTQIPPSSAALQTQIPTTLEVTTTTLNNKQSKNDNQLVNQLNKAQGEASMLRDKINFLNIEREKEKNIQAVKVNELQVKHLQELAKLKQELQKLEDEKKFLQMEARGKSKREVITNVKPPSTTLSTNTNTITPDSSSVAIEAKPQSPQSKKRKISDNLLKKNMVPLNPNRIIPDETSLFLESILLHQIIGADLSTIEILNRLKLDYITEFKFKNFVIAKGAPIGKSIVSLLLRCKKTLTLDRFIDTLLEDIAVLIKEISVHPNESKLAVPFLVALMYQIVQFRPSATHNLALKDCFLFICDLIRIYHHVLKVPIHESNMNLHVEPQIFQYELIDYLIISYSFDLLEGILRVLQSHPKQTYMEFFDENILKSFEFVYKLALTISYKPMVNVIFSAVEVVNIITSIILNMDNSSDLKSLISGSWWRDCITRLYALLEKEIKSGDVYNENVDTTTLHMSKYHDFFGLIRNIGDNELGGLISKLIYTDRLQSVPRVISKEDIGMDSDKFTAPIIGYKMEKWLLKLKDEVLNIFENLLMIYGDDATIVNGEMLIHSSKFLSREQALMIERYVGQDSPNLDLRCHLIEHTLTIIYRLWKDHFKQLREEQIKQVESQLIMSLWRFLVCQTETVTANEREMRDHRHLVDSLHDLTIKDQASYYEDAFEDLPEYIEEELKMQLNKRTGRIMQVKYDEKFQEMARTILESKSFDLTTLEEADSLYISMGL
B1 yielded a percent reduction of the two-hybrid interaction of 50%.
